Data on four sequences can be found in article PMC8725580.

Residue numbers refer to the chain shown, from its start.

Holding throughout (settings): 20 mM Tris pH 7.5, 1 mM CaCl2, 1 mM DTT, 10 ug/ml poly(dI-dC), 100 ug/ml BSA, 37 C, 10 min; probe 0.05 uM (0.1 uM restricted)
The test system of data set [1] is T1, CovR D53E D52E (Streptococcus salivarius HSISS4), ORF:ee641105.
T1 sequence: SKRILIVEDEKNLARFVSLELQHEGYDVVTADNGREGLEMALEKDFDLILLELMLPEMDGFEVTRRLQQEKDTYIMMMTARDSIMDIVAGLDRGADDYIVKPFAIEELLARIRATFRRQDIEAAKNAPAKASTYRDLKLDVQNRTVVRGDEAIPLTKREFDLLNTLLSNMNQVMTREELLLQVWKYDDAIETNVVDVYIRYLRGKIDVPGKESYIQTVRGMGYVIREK
Put plainly: competition.

In data set [2] the test system is T2, CovR D53A D52A (Streptococcus salivarius HSISS4), ORF:ee641105.
T2 sequence: T1 sequence with E52A
Put plainly: EMSA. On the technique in general: In EMSA bound probe runs differently from free probe, usually more slowly.

Data set [3] deals with T1, CovR D53E D52E (Streptococcus salivarius HSISS4), ORF:ee641105. Nature of the data set: EMSA.
Data set [4] deals with T3, CovR WT (Strep-tagged) (Streptococcus salivarius HSISS4), ORF:ee641105.
T3 sequence: T1 sequence with E52D
Nature of the data set: EMSA.

Consider “AAAAATAATGAGCACTTAAAAGAATGGGATAAGGACAATATCAAAAATGTTGTTCTATCTCATTCTTTTTGTTTGAAACAGTTAATATGGTAGAGGCGTTTTTACTAGTAGCGTATGCTATAATAGAAAGATAGAAAGGAGGCCTTCATG (double strand) [PdnaE unlabeled competitor]”, for which, in data set [1], the binding entry was “no binding”.
On the same count and under the same terms, the value for “CAAGAGACACTCCTTTATTTCGAAATTTTAAAAACATTATATCATAATTATAATATAATTAATATACAGTTAATGCATTTTTAACAGAACAATAGTGAAAATAAGCTATTTTTATACATTTTATATAGGAAAGACCTTCCTTTGTATCAA (double strand) [PcomR unlabeled competitor]” was “binds”.
Same read-out and setting: the value for “CCTGTAGTTCCCTTACATACAGTGCGTTACTTTGAGAATGCAGACCGCTCGACGATTCAGATGTTGCATGCCATCTCGCAAAACGTTTCCTTGTCAGAGGCCTCTATTTGTCCTATGAATCAGCTTCTTTTCTCGCCTCAAGAAATGGAA (double strand) [CDSdnaE unlabeled competitor]” was “no binding”.
In the case of “TTGATACAAAGGAAGGTCTTTCCTATATAAAATGTATAAAAATAGCTTATTTTCACTATTGTTCTGTTAAAAATGCATTAACTGTATATTAATTATATTATAATTATGATATAATGTTTTTAAAATTTCGAAATAAAGGAGTGTCTCTTG (double strand) [PcomR HSISS4 (150 bp)]”, the binding entry is “binds more weakly” in data set [2], “binds” in data set [3] and “binds” in data set [4].
